According to the supplement of paper PMC5998384:

Columns and labels:
HeLa Kyoto [1] = experiment: solubility change mitosis vs G1/S (difference of NP-40 vs SDS log2 ratios) (log2 ratio difference); higher = more soluble in mitosis
HeLa Kyoto [2] = experiment: solubility in G1/S (NP-40 vs SDS abundance) (log2 ratio); higher = more soluble; details: cell cycle stage: G1/S
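Wherever solubility change mitosis vs G1/S (difference of NP-40 vs SDS log2 ratios) is given: synchronized HeLa Kyoto cells (double thymidine block for G1/S, nocodazole release for mitosis), protein amounts in NP-40 versus SDS lysates quantified by mass spectrometry, three biological replicates.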
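Wherever solubility in G1/S (NP-40 vs SDS abundance) is given: HeLa Kyoto cells arrested at G1/S by double thymidine block, proteins quantified by TMT10plex mass spectrometry in mild NP-40 versus SDS extracts, three biological replicates.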

Chain of UBE2D1 (chain, as listed by the source): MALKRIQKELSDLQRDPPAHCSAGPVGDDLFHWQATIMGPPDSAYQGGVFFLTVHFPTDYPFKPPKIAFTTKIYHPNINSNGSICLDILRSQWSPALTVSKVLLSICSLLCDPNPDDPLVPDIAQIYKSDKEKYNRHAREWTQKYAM

Row | Substance | solubility change mitosis (log2) (HeLa Kyoto [1]) | solubility in G1/S (log2) (HeLa Kyoto [2])
1 | MDVHDLFRRLGAGAKFDTRRFSADAARFQIGKRKYDFDSSEVLQGLDFFGNKKSVPGVCGASQTHQKPQNGEKKEESLTERKREQSKKKRKTMTSEIASQEEGATIQWMSSVEAKIEDKKVQRESKLTSGKLENLRKEKINFLRNKHKIHVQGTDLPDPIATFQQLDQEYKINSRLLQNILDAGFQMPTPIQMQAIPVMLHGRELLASAPTGSGKTLAFSIPILMQLKQPANKGFRALIISPTRELASQIHRELIKISEGTGFRIHMIHKAAVAAKKFGPKSSKKFDILVTTPNRLIYLLKQDPPGIDLASVEWLVVDESDKLFEDGKTGFRDQLASIFLACTSHKVRRAMFSATFAYDVEQWCKLNLDNVISVSIGARNSAVETVEQELLFVGSETGKLLAVRELVKKGFNPPVLVFVQSIERAKELFHELIYEGINVDVIHAERTQQQRDNTVHSFRAGKIWVLICTALLARGIDFKGVNLVINYDFPTSSVEYIHRIGRTGRAGNKGKAITFFTEDDKPLLRSVANVIQQAGCPVPEYIKGFQKLLSKQKKKMIKKPLERESISTTPKCFLEKAKDKQKKVTGQNSKKKVALEDKS [DDX52] | 1.04 | -1.37
2 | MEAPEGGGGGPAARGPEGQPAPEARVHFRVARFIMEAGVKLGMRSIPIATACTIYHKFFCETNLDAYDPYLIAMSSIYLAGKVEEQHLRTRDIINVSNRYFNPSGEPLELDSRFWELRDSIVQCELLMLRVLRFQVSFQHPHKYLLHYLVSLQNWLNRHSWQRTPVAVTAWALLRDSYHGALCLRFQAQHIAVAVLYLALQVYGVEVPAEVEAEKPWWQVFNDDLTKPIIDNIVSDLIQIYTMDTEIP [FAM58A] | 0.235 | -0.46
3 | MRSLRKKREKPRPEQWKGLPGPPRAPEPEDVAVPGGVDLLTLPQLCFPGGVCVATEPKEDCVHFLVLTDVCGNRTYGVVAQYYRPLHDEYCFYNGKTHRECPGCFVPFAVCVVSRFPYYNSLKDCLSCLLALLKPCKDFEVDSHIKDFAAKLSLIPSPPPGPLHLVFNMKSLQIVLPARADPESPILDLDLHLPLLCFRPEKVLQILTCILTEQRIVFFSSDWALLTLVTECFMAYLYPLQWQHPFVPILSDQMLDFVMAPTSFLMGCHLDHFEEVSKEADGLVLINIDHGSITYSKSTDDNVDIPDVPLLAAQTFIQRVQSLQLHHELHAAHLLSSTDLKEGRAHRRSWQQKLNCQIQQTTLQLLVSIFRDVKNHLNYEHRVFNSEEFLKTRAPGDHQFYKQVLDTYMFHSFLKARLNRRMDAFAQMDLDTQSEEDRINGMLLSPRRPTVEKRASRKSSHLHVTHRRMVVSMPNLQDIAMPELAPRNSSLRLTDTAGCRGSSAVLNVTPKSPYTFKIPEIHFPLESKCVQAYHAHFVSMLSEAMCFLAPDNSLLLARYLYLRGLVYLMQGQLLNALLDFQNLYKTDIRIFPTDLVKRTVESMSAPEWEGAEQAPELMRLISEILDKPHEASKLDDHVKKFKLPKKHMQLGDFMKRVQESGIVKDASIIHRLFEALTVGQEKQIDPETFKDFYNCWKETEAEAQEVSLPWLVMEHLDKNECVCKLSSSVKTNLGVGKIAMTQKRLFLLTEGRPGYLEISTFRNIEEVRRTTTTFLLRRIPTLKIRVASKKEVFEANLKTECDLWHLMVKEMWAGKKLADDHKDPHYVQQALTNVLLMDAVVGTLQSPGAIYAASKLSYFDKMSNEMPMTLPETTLETLKHKINPSAGEAFPQAVDVLLYTPGHLDPAEKVEDAHPKLWCALSEGKVTVFNASSWTIHQHSFKVGTAKVNCMVMADQNQVWVGSEDSVIYIINVHSMSCNKQLTAHCSSVTDLIVQDGQEAPSNVYSCSMDGMVLVWNVSTLQVTSRFQLPRGGLTSIRLHGGRLWCCTGNSIMVMKMNGSLHQELKIEENFKDTSTSFLAFQLLPEEEQLWAACAGRSEVYIWSLKDLAQPPQRVPLEDCSEINCMIRVKKQVWVGSRGLGQGTPKGKIYVIDAERKTVEKELVAHMDTVRTLCSAEDRYVLSGSGREEGKVAIWKGE [DENND3] | -0.197 | -0.339
4 | UBE2D1 | -0.0476 | 0.473
5 | MNSRQAWRLFLSQGRGDRWVSRPRGHFSPALRREFFTTTTKEGYDRRPVDITPLEQRKLTFDTHALVQDLETHGFDKTQAETIVSALTALSNVSLDTIYKEMVTQAQQEITVQQLMAHLDAIRKDMVILEKSEFANLRAENEKMKIELDQVKQQLMHETSRIRADNKLDINLERSRVTDMFTDQEKQLMETTTEFTKKDTQTKSIISETSNKIDAEIASLKTLMESNKLETIRYLAASVFTCLAIALGFYRFWK [CCDC90B] | 0.249 | 0.144
6 | MED13L | -0.119 | 0.0923
